From the RNAGym collection of RNA variant scans (doi:10.7554/elife.80360)

B1: HDV Ribozyme (parent)
chain: GGCCGGCAUGGUCCCAGCCUCCUCGCUGGCGCCGGCUGGGCAACAUUCCGAGGGGACCGUCCCCUCGGUAAUGGCGAAUGGGACCCA

Variants of: B1
Test: self-cleavage, relative activity (ratio to wild type); higher = more cleavage; co-transcriptional
Variant GGCCGGCAUGGUCCCAGCCUCCUCGCUGGCGCCGGCCGGGCAACAUUCCGAGGGGACCCUCCCCUCGGUAAUGGCGAAUGGGACCCA has a self-cleavage of 1.16.
For GGCCGGCAUGGUCCCAGCCUCCUCGCUGGCGCCGGCCGGGCAACAUUCCGAGGGGACCUUCCCCUCGGUAAUGGCGAAUGGGACCCA, the self-cleavage was 1.25.
With GGCCGGCAUGGUCCCAGCCUCCUCGCUGGCGCCGGCCGGGCAACAUUCCGAGGGGACCGUCACCUCGGUAAUGGCGAAUGGGACCCA the self-cleavage was 1.05.
For GGCCGGCAUGGUCCCAGCCUCCUCGCUGGCGCCGGCCGGGCAACAUUCCGAGGGUACCGUCCCCUCGGUAAUGGCGAAUGGGACCCA, the self-cleavage was 1.13.
Variant GGCCGGCAUGGUCCCAGCCUCCUCGCUGGCGCCGGCCGGGCAACAUUCCGAGGGGACCGUCCCCUAGGUAAUGGCGAAUGGGACCCA has a self-cleavage of 1.25.
In the case of GGCCGGCAUGGUCCCAGCCUCCUCGCUGGCGCCGGCCGGGCAACAUUCCGAGGCGACCGUCCCCUCGGUAAUGGCGAAUGGGACCCA, the self-cleavage is reported as 1.13.
In the case of GGCCGGCAUGGUCCCAGCCUCCUCGCUGGCGCCGGCCGGGCAACAUUCCGAGGAGACCGUCCCCUCGGUAAUGGCGAAUGGGACCCA, the self-cleavage is reported as 1.11.
For GGCCGGCAUGGUCCCAGCCUCCUCGCUGGCGCCGGCCGGGCAACAUUCCGAGGUGACCGUCCCCUCGGUAAUGGCGAAUGGGACCCA, the self-cleavage was 1.02.
GGCCGGCAUGGUCCCAGCCUCCUCGCUGGCGCCGGCCGGGCAACAUUCCGAGGGGACAGUCCCCUCGGUAAUGGCGAAUGGGACCCA gave a self-cleavage of 1.22.
For GGCCGGCAUGGUCCCAGCCUCCUCGCUGGCGCCGGCCGGGCAACAUUCCGAGGGGACUGUCCCCUCGGUAAUGGCGAAUGGGACCCA, the self-cleavage was 0.997.
GGCCGGCAUGGUCCCAGCCUCCUCGCUGGCGCCGGCCGGGCAACAUUCCGAGGGGACGGUCCCCUCGGUAAUGGCGAAUGGGACCCA gave a self-cleavage of 0.872.
For GGCCGGCAUGGUCCCAGCCUCCUCGCUGGCGCCGGCCGGGCAACAUUCCGAAGGGACCGUCCCCUCGGUAAUGGCGAAUGGGACCCA, the self-cleavage was 1.25.
For GGCCGGCAUGGUCCCAGCCUCCUCGCUGGCGCCGGCCGGGCAACAUUCCGAUGGGACCGUCCCCUCGGUAAUGGCGAAUGGGACCCA, the self-cleavage was 0.997.
With GGCCGGCAUGGUCCCAGCCUCCUCGCUGGCGCCGGCCGGUCAACAUUCCGAGGGGACCGUCCCCUCGGUAAUGGCGAAUGGGACCCA the self-cleavage was 0.456.
For GGCCGGCAUGGUCCCAGCCUCCUCGCUGGCGCCGGCCGGCCAACAUUCCGAGGGGACCGUCCCCUCGGUAAUGGCGAAUGGGACCCA, the self-cleavage was 0.262.
Variant GGCCGGCAUGGUCCCAGCCUCCUCGCUGGCGCCGGCCUGGCAACAUUCCGAGGGGACCGUCCCCUCGGUAAUGGCGAAUGGGACCCA has a self-cleavage of 0.0773.
GGCCGGCAUGGUCCCAGCCUCCUCGCUGGCGCCGGCCGGGCAACAUUCCGAGUGGACCGUCCCCUCGGUAAUGGCGAAUGGGACCCA showed a self-cleavage of 1.13.
Work on GGCCGGCAUGGUCCCAGCCUCCUCGCUGGCGCCGGCCGGGCAACAUUCCGAGGGGACCGUCCCCUCGGUAAUGGCGAAUGGGAGCCA yielded a self-cleavage of 0.587.
In the case of GGCCGGCAUGGUCCCAGCCUCCUCGCUGGCGCCGGCCGGGCAACAUUCCGAGGGGACCGUCCCCUCGGUAAUGGCGAAUGGGAACCA, the self-cleavage is reported as 0.697.
With GGCCGGCAUGGUCCCAGCCUCCUCGCUGGCGCCGGCCGGGCAACAUUCCGAGGGGACCGUCCCCUCGGUAAUGGCGAAUGGGACACA the self-cleavage was 1.16.
Work on GGCCGGCAUGGUCCCAGCCUCCUCGCUGGCGCCGGCCGGGCAACAUUCCGAGGGGACCGUCCCCUCGGUAAUGGCGAAUGGGACUCA yielded a self-cleavage of 1.01.
GGCCGGCAUGGUCCCAGCCUCCUCGCUGGCGCCGGCCGGGCAACAUUCCGAGGGGACCGUCCCCUCGGUAAUGGCGAAUGGGACGCA gave a self-cleavage of 0.95.
GGCCGGCAUGGUCCCAGCCUCCUCGCUGGCGCCGGCCGGGCAACAUUCCGAGGGGACCGUCCCCUCGGUAAUGGAGAAUGGGACCCA showed a self-cleavage of 0.177.
With GGCCGGCAUGGUCCCAGCCUCCUCGCUGGCGCCGGCCGGGCAACAUUCCGAGGGGACCGUCCCCUCGGUAAUGGGGAAUGGGACCCA the self-cleavage was 0.0627.
GGCCGGCAUGGUCCCAGCCUCCUCGCUGGCGCCGGCCGGGCAACAUUCCGAGGGGACCGUCCCCUCGGUAAUGGUGAAUGGGACCCA showed a self-cleavage of 0.0997.
In the case of GGCCGGCAUGGUCCCAGCCUCCUCGCUGGCGCCGGCCGGGCAACAUUCCGAGGGGACCGUCCCUUCGGUAAUGGCGAAUGGGACCCA, the self-cleavage is reported as 1.19.
With GGCCGGCAUGGUCCCAGCCUCCUCGCUGGCGCCGGCCGGGCAACAUUCCGAGGGGACCGUCCCGUCGGUAAUGGCGAAUGGGACCCA the self-cleavage was 0.604.
Variant GGCCGGCAUGGUCCCAGCCUCCUCGCUGGCGCCGGCCGGGCAACAUUCCUAGGGGACCGUCCCCUCGGUAAUGGCGAAUGGGACCCA has a self-cleavage of 0.923.
GGCCGGCAUGGUCCCAGCCUCCUCGCUGGCGCCGGCCGGGCAACAUUCCGAGGGGACCGUCCGCUCGGUAAUGGCGAAUGGGACCCA gave a self-cleavage of 0.965.
For GGCCGGCAUGGUCCCAGCCUCCUCGCUGGCGCCGGCCGGGCAACAUUCCGAGGGGACCGUCCACUCGGUAAUGGCGAAUGGGACCCA, the self-cleavage was 1.03.
GGCCGGCAUGGUCCCAGCCUCCUCGCUGGCGCCGGCCGGGCAACAUUCCGAGGGGACCGUUCCCUCGGUAAUGGCGAAUGGGACCCA showed a self-cleavage of 0.884.
In the case of GGCCGGCAUGGUCCCAGCCUCCUCGCUGGCGCCGGCCGGGCAACAUUCCGAGGGGACCGUCCCCUCAGUAAUGGCGAAUGGGACCCA, the self-cleavage is reported as 1.
